Experimental data from patent US20040161448.

Assays:
soybean agglutinin (SBA) = soybean agglutinin (SBA) (UniProt P05046)
[1] = biological target: T1, soybean Bowman-Birk Inhibitor (UniProt P01055)
T1 sequence: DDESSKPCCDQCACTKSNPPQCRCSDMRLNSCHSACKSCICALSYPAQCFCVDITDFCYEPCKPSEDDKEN

[2] = biological target: T2, Soybean Kunitz Trypsin Inhibitor (UniProt P01070)
T2 sequence: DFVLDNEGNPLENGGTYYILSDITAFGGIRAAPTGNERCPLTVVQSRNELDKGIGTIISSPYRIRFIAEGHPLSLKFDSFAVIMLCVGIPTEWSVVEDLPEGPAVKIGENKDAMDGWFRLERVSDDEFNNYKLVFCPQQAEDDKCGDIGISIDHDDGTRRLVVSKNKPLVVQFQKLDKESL

Sequence of soybean agglutinin (SBA) (P05046 33-285): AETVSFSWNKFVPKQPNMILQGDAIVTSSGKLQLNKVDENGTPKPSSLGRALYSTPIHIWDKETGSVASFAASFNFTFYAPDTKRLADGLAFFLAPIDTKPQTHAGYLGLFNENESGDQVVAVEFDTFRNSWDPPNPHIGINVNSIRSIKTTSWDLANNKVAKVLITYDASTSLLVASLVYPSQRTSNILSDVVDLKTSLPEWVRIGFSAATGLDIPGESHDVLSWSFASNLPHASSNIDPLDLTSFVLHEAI

Question: “protease derived from Bacillus sp. NCIMB 40484” was tested. Which % of anti-nutritional factor degraded (soybean agglutinin (SBA)) did it give?
Answer: 21%

Question: And the % of anti-nutritional factor degraded [1]?
Answer: 41%

Question: What about the % of anti-nutritional factor degraded [2] of the same substance?
Answer: 100%
